Reference: publication PMC6284149, “Biochemical, Metabolomic, and Genetic Analyses of Dephospho Coenzyme A Kinase Involved in Coenzyme A Biosynthesis in the Human Enteric Parasite Entamoeba histolytica” (Frontiers in Microbiology, 2018)

Tests used:
[1] = molecular target: T1, EhDPCK2 (Entamoeba histolytica, UniProt C4LWC7); test: inhibition of DPCK activity; format: biochemical
T1 construct: gene EHI_155780; expressed in E. coli BL21(DE3), Ni-NTA purified
T1 sequence (C4LWC7 1-204): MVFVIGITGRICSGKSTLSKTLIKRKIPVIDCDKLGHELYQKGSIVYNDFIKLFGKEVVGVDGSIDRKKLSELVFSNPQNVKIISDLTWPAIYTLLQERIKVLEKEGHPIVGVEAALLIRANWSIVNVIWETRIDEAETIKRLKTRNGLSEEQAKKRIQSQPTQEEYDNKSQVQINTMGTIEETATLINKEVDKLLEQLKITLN

[2] = molecular target: T2, EhDPCK1 (Entamoeba histolytica, UniProt C4MB67); test: inhibition of DPCK activity; format: biochemical
T2 construct: gene EHI_040840; expressed in E. coli BL21(DE3), Ni-NTA purified
T2 sequence (C4MB67 1-206): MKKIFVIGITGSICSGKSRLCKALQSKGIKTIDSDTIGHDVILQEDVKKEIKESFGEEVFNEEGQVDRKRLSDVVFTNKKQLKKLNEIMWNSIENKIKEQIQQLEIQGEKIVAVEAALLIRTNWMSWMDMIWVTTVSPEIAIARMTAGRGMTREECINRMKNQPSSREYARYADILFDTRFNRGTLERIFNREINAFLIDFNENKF

[3] = substrate: CC(C)(COP(=O)(O)OP(=O)(O)OC[C@H]1O[C@@H](n2cnc3c(N)ncnc32)[C@H](O)[C@@H]1O)[C@@H](O)C(=O)NCCC(=O)NCCS; test: ADP Hunter Plus coupled fluorescence assay, initial rates, non-linear regression; format: biochemical, Entamoeba histolytica; settings: 100 μM ATP; 4-128 μM dephospho-CoA; 15 mM Hepes, 20 mM NaCl, 1 mM EGTA, 10 mM MgCl2
Source text: (§1) ADP Hunter Plus coupled fluorescence assay, initial rates, non-linear regression on EhDPCK1

[4] = substrate: Nc1ncnc2c1ncn2[C@@H]1O[C@H](COP(=O)(O)OP(=O)(O)OP(=O)(O)O)[C@@H](O)[C@H]1O; test: as above; format: biochemical, Entamoeba histolytica; settings: 128 μM dephospho-CoA; 1-100 μM ATP; 15 mM Hepes, 20 mM NaCl, 1 mM EGTA, 10 mM MgCl2
Source text: as §1

[5] = substrate: CC(C)(COP(=O)(O)OP(=O)(O)OC[C@H]1O[C@@H](n2cnc3c(N)ncnc32)[C@H](O)[C@@H]1O)[C@@H](O)C(=O)NCCC(=O)NCCS; test: as above; format: biochemical, Entamoeba histolytica; settings: 100 μM ATP; 4-128 μM dephospho-CoA; 15 mM Hepes, 20 mM NaCl, 1 mM EGTA, 10 mM MgCl2; remark: listed apart in the source
Source text: (§2) ADP Hunter Plus coupled fluorescence assay, initial rates, non-linear regression on EhDPCK2

[6] = substrate: Nc1ncnc2c1ncn2[C@@H]1O[C@H](COP(=O)(O)OP(=O)(O)OP(=O)(O)O)[C@@H](O)[C@H]1O; test: as above; format: biochemical, Entamoeba histolytica; settings: 128 μM dephospho-CoA; 1-100 μM ATP; 15 mM Hepes, 20 mM NaCl, 1 mM EGTA, 10 mM MgCl2; remark: listed apart in the source
Source text: as §2

[7] = feedback inhibition at relatively high concentrations
[8] = product feedback inhibition at relatively high concentrations

For `CC(C)(COP(=O)(O)OP(=O)(O)OC[C@H]1O[C@@H](n2cnc3c(N)ncnc32)[C@H](O)[C@@H]1OP(=O)(O)O)[C@@H](O)C(=O)NCCC(=O)NCCSC(=O)CC(=O)O` [malonyl-CoA], the inhibition [1, 7] was “Both EhDPCK1 and EhDPCK2 showed similar profiles of inhibition by CoA, acetyl-CoA, and malonyl-CoA” and the inhibition [2, 7] was “Both EhDPCK1 and EhDPCK2 showed similar profiles of inhibition by CoA, acetyl-CoA, and malonyl-CoA”.

For `CC(C)(COP(=O)(O)OP(=O)(O)OC[C@H]1O[C@@H](n2cnc3c(N)ncnc32)[C@H](O)[C@@H]1OP(=O)(O)O)[C@@H](O)C(=O)NCCC(=O)NCCS` [CoA], the inhibition [1, 8] was “Both EhDPCK1 and EhDPCK2 showed similar profiles of inhibition by CoA, acetyl-CoA, and malonyl-CoA” and the inhibition [2, 8] was “Both EhDPCK1 and EhDPCK2 showed similar profiles of inhibition by CoA, acetyl-CoA, and malonyl-CoA”.

For `CC(=O)SCCNC(=O)CCNC(=O)[C@H](O)C(C)(C)COP(=O)(O)OP(=O)(O)OC[C@H]1O[C@@H](n2cnc3c(N)ncnc32)[C@H](O)[C@@H]1OP(=O)(O)O` [acetyl-CoA], the inhibition [1, 7] was “Both EhDPCK1 and EhDPCK2 showed similar profiles of inhibition by CoA, acetyl-CoA, and malonyl-CoA” and the inhibition [2, 7] was “Both EhDPCK1 and EhDPCK2 showed similar profiles of inhibition by CoA, acetyl-CoA, and malonyl-CoA”.

B1: EhDPCK1 (Entamoeba histolytica HM-1:IMSS) (protein)
chain: T2 sequence (C4MB67 1-206)
notes: expressed in E. coli BL21(DE3), Ni-NTA purified
Molecule B1 has a Km [3] of 114 ± 19 µM, a Vmax [3] of 3.71 µmol/min/mg and a kcat [3] of 1.48 ± 0.172 s⁻¹. For the same molecule, the kcat/Km [3] was 13000 ± 667 M⁻¹ s⁻¹, the Km [4] was 19.6 ± 1.2 µM and the Vmax [4] was 3.54 µmol/min/mg. It also gave a kcat [4] of 1.41 ± 0.04 s⁻¹ and a kcat/Km [4] of 72000 ± 3830 M⁻¹ s⁻¹.

B2: EhDPCK2 (Entamoeba histolytica HM-1:IMSS) (protein)
chain: T1 sequence (C4LWC7 1-204)
notes: as for B1
For B2, the Km [5] was 57.9 ± 6.07 µM, the Vmax [5] was 2.48 µmol/min/mg and the kcat [5] was 0.958 ± 0.0583 s⁻¹. The kcat/Km [5] was 16500 ± 1170 M⁻¹ s⁻¹, the Km [6] was 15.0 ± 2.4 µM and the Vmax [6] was 2.71 µmol/min/mg. For the same molecule, the kcat [6] was 1.05 ± 0.0617 s⁻¹ and the kcat/Km [6] was 70800 ± 12300 M⁻¹ s⁻¹.
